Measurements: patent US9333268B2, “Methods of treatment with arginine deiminase” (Polaris Group, priority 2012, dated 2016)

Experiments:
[1] = tested on: ASS-positive colon carcinoma cell line SW1222; experiment: MTS proliferation assay, adherent cells; type: cell-based; conditions: 0 to 10 mIU ml^−1, 120 h
Protocol: (§1) To assess the anti-proliferative effect of ADI-PEG 20 on adherent cells, cells were plated a density of 2×10^3 cells per well in a tissue culture 96-microwell plate and allowed to adhere overnight. The following day, cells were treated with ADI-PEG 20 (DesigneRx Pharmaceuticals, Vacaville, Calif., USA, a subsidiary of Polaris Group, San Diego, Calif., USA) ranging from 0 to 10 mIU ml^−1. After incubation for 120 h, cell viability was determined using (3-(4,5-dimethylthiazol-2-yl)-5-(3-carboxymethoxyphenyl)-2-(4-sulfophenyl)-2H-tetrazolium) (MTS, CellTiter 96 AQueous One Solution, Promega, Madison, Wis., USA), according to the manufacturers protocol. Twenty microliters of MTS reagent was added to the appropriate control and assay wells before the plate was incubated for 2 h at 37° C. and absorbance read at 490 nm. Absolute absorbance for each treatment was determined by subtracting the background MTS absorbance, and the mean and standard deviation was calculated. The effect of the autophagy inhibitor chloroquine (Sigma) on cell proliferation was assessed using the MTS assay.

SK-LC-13 = experiment: Western blot of autophagy-related protein LC3-II; type: cell-based, human; conditions: 24 hour incubation
From the text: Following washing, the membranes were then probed with the appropriate secondary antibody before proteins were finally visualized using ECL reagent (Perkin-Elmer, Fremont Calif., USA).
An assay for the formation of the autophagy-related protein LC3-II assessed if treatment with ADI-PEG 20 was able to induce cellular autophagy in SCLC. […] Chloroquine is a known inhibitor of autophagy that disrupts normal lysosomal functions, and thus results in an increase in the cellular level of LC3-II.

[2] = tested on: sarcoma cell lines with low expression of ASS; experiment: Sarcoma cell line panel treated with ADI-PEG 20; type: cell-based
[3] = tested on: L-arginine and L-citrulline; experiment: Serum arginine and citrulline by HPLC; type: in vivo, mice
Protocol: (§2) In order to determine the effect of ADI-PEG 20 treatment on systemic arginine levels, mice sera were analyzed using high-performance liquid chromatography (HPLC). L-arginine and L-citrulline were resolved with a Pickering Laboratories PCX 5200 post-column derivatization instrument (Pickering Laboratories, Mountain View, Calif., USA) at 39° C. reaction temperature and a fluorescence detector. […] Total ADI-PEG 20 levels were measured by ELISA, as described previously (Holtsberg et al, J Control Release 80(1-3):259-271, 2002).

[4] = tested on: ASS high osteosarcoma cell line MG63; experiment: Sarcoma cell line panel treated with ADI-PEG 20; type: cell-based
SW1222 = experiment: MTS viability of siRNA-transfected ASS-positive SW1222 cells treated with ADI-PEG 20; type: cell-based
Protocol: as §1
To further assess the importance of cellular ASS expression in response to treatment with ADI-PEG 20, expression of ASS was silenced through the use of ASS-specific siRNA. Small interfering RNA constructs were obtained from Integrated DNA technologies (IDT, Coralville, Iowa, USA) against the ASS-coding region. […]

[5] = Serum ADI-PEG 20 levels by ELISA; type: in vivo, mice
Protocol: as §2

SK-LC-13 cells = experiment: FACS analysis of apoptosis by sub-G1 DNA content (propidium iodide); type: cell-based, human
Protocol: Apoptosis was measured by FACS of propidium-iodide-stained cells as detailed by Riccardi et al (Riccardi and Nicoletti, Nat Protoc 1(3):1458-1461, 2006). Cells were plated in 24-well plates and treated with ADI-PEG 20 for […]. Cells were then harvested, washed and fixed in 70% ethanol. DNA was then stained using 20 μg ml^−1 propidium iodide containing 10 μgml^−1 DNAse-free RNAse A (Sigma-Aldrich). Cells were then read on a BD FACSCalibur (BD Biosciences) and analyzed using Flow Jo Software (Tree Star, Ashland, Oreg., USA).
In order to determine the possible mechanism of the antiproliferative effects of ADI-PEG 20 a FACS analysis of apoptosis by sub-G1 DNA content was performed. Cells were treated for 72 h before the analysis was performed.

IC50 ([2]; sensitive cell lines with low expression of ASS): 0.02 to 0.1 µg/mL
B1: ADI-PEG 20: arginine deiminase (ADI) formulated with PEG of 20,000 m.w. (protein)
chain: MSVFDSKFNGIHVYSEIGELETVLVHEPGREIDYITPARLDELLFSAILESHDARKEHQSFVKIMKDRGINVVELTDLVAETYDLASKAAKEEFIETFLEETVPVLTEANKEAVRAFLLSKPTHEMVEFMMSGITKYELGVESENELIVDPMPNLYFTRDPFASVGNGVTIHFMRYIVRRRETLFARFVFRNHPKLVKTPWYYDPAMKMSIEGGDVFIYNNETLVVGVSERTDLDTITLLAKNIKANKEVEFKRIVAINVPKWTNLMHLDTWLTMLDKNKFLYSPIANDVFKFWDYDLVNGGAEPQPQLNGLPLDKLLASIINKEPVLIPIGGAGATEMEIARETNFDGTNYLAIKPGLVIGYDRNEKTNAALKAAGITVLPFHGNQLSLGMGNARCMSMPLSRKDVKW
growth [1]: No effect | cellular level of LC3-II (SK-LC-13): clear increase in the detectable cellular level of the protein | cell cycle and apoptosis ([2]; ASS expression low): cell cycle arrest but not apoptosis | autophagy ([2]; sarcomas that lack ASS): induced autophagy | citrulline levels ([3]; 1, 2, 5 IU): rose in a dose-dependent relationship to arginine | serum arginine after end of dosing ([3]; 20 days after the last dose (day 40)): returned to normal levels | citrulline levels ([3]; continued dosing, 2 and 5 IU): Little increase in citrulline levels | arginine serum levels ([3]; extended dosing, 1 IU): below the limits of detection | citrulline levels ([3]; extended dosing, 1 IU): increased with extended dosing | serum arginine ([3]; short course of treatment): only temporarily depleted serum arginine | cell division [4]: continued to divide | cell viability (SW1222; cells treated with ASS siRNA): reduced cell viability | cell viability (SW1222; control or scrambled siRNA-treated cells): no decrease in viability | ADI-PEG 20 serum levels after end of dosing ([5]; administered only up to day 20): return to baseline levels by day 40 | ADI-PEG 20 serum levels ([5]; days 0, 12, 40, 1, 2, 5 IU): dose dependent | cells in apoptosis (sub-G1 DNA content) (SK-LC-13 cells; 1.0 mIU ml^−1, 72 h): ~6% | cells in apoptosis (sub-G1 DNA content) (SK-LC-13 cells; 10 mIU ml^−1, 72 h): ~16%
